Data reported in patent publication US20220204621A1 (UCL BUSINESS, published 2022).

What was measured:
[1] = biological target: human Receptor Tyrosine Kinase Like Orphan Receptor 1 (ROR1), full length (human) (UniProt Q01973); test: cell-based or functional assay
[2] = biological target: human ROR1 with the combination of Q(261)H and I(254)V (human, UniProt Q01973 30-937, limits assumed); test: antibody binding to mutated human ROR1 constructs
human ROR1 with the combination of Q(261)H and I(254)V, sequence (Q01973 30-937 I254V/Q261H limits assumed): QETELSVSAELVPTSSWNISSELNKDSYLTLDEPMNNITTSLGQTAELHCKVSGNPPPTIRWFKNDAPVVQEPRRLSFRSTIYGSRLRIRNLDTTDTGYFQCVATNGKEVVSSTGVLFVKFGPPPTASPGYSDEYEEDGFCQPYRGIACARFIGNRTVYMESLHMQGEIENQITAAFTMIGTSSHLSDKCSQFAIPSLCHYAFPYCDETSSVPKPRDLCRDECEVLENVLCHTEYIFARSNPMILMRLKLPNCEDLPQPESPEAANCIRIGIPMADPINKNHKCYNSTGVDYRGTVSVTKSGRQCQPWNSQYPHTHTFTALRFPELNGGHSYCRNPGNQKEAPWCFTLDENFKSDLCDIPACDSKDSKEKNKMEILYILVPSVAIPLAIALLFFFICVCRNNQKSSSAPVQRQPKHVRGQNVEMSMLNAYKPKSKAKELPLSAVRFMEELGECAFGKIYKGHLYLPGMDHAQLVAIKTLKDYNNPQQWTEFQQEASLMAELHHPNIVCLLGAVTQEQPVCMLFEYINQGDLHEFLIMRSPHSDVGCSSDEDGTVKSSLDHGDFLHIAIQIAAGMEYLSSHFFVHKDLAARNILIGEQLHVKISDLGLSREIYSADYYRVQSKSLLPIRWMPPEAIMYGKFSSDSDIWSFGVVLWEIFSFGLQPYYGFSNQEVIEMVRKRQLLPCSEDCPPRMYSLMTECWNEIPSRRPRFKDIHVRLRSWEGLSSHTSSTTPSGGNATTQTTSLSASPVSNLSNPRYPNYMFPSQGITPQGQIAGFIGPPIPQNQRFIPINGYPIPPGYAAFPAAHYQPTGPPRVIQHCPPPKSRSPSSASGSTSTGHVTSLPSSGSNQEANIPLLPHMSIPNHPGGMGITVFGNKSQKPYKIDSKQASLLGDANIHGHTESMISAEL

human Receptor Tyrosine Kinase Like Orphan Receptor 1 (ROR1), full length (human), sequence (Q01973 30-937): as the sequence (Q01973 30-937 I254V/Q261H limits assumed) above, with V225I, H232Q counted along it

| Binder | cytotoxicity against neuroblastoma cell lines; lowest concentration named (micrograms/ml) [1] | dose dependent cytotoxicity across ROR1 positive pancreatic cell lines (PANC-1, SUIT-2, CFPAC1, HPAF-II, MiaPaCa2, PSN-1); lowest concentration with significant activity [1] | binding result [2] |
| --- | --- | --- | --- |
| ROR1xCD3 BiTE (membrane proximal binding ROR1-BiTE specific for the Frizzled domain) (bispecific antibody, part only; not given: OKT3 scFv and linkers, part only) chain, part: HHHHHHEVQLVESGGGLVQPGRSLKLSCAASGFIFSEHNMAWVRQAPKKGLEWVATISDDGRNTYYRDSMRGRFTISRENARSTLYLQLDSLRSEDTATYYCASHRYNLFDSWGQGVMVTVSSDIQMTQSPSFLSASVGDRVTINCKASQNIDRYLNWYQQKLGEAPKRLLYNTNKLQTGIPSRFSGSGSATDFTLTISSLQPEDFATYFCLQYNSLPLTFGSGTKLEIK | 0.01 | 0.1 ng/mL | – |
| Clone F antibody (antibody, V domains shown, Rat anti-ROR1 antibody from a hybridoma library) VH: EVQLVESGGGLVQPGRSLKLSCAASGFIFSEHNMAWVRQAPKKGLEWVATISDDGRNTYYRDSMRGRFTISRENARSTLYLQLDSLRSEDTATYYCASHRYNLFDSWGQGVMVTVSS VL: DIQMTQSPSFLSASVGDRVTINCKASQNIDRYLNWYQQKLGEAPKRLLYNTNKLQTGIPSRFSGSGSATDFTLTISSLQPEDFATYFCLQYNSLPLTFGSGTKLEIK | – | – | no binding |
